# Test results reported in patent US7524668.
# Biological target: recombinant soluble human beta-secretase from CHO-K1 cells (Hu_Asp-2LdeltaTM(His)6) (UniProt P56817)
# Sequence (P56817 other isoform, or with tags, fused parts or gaps mutant): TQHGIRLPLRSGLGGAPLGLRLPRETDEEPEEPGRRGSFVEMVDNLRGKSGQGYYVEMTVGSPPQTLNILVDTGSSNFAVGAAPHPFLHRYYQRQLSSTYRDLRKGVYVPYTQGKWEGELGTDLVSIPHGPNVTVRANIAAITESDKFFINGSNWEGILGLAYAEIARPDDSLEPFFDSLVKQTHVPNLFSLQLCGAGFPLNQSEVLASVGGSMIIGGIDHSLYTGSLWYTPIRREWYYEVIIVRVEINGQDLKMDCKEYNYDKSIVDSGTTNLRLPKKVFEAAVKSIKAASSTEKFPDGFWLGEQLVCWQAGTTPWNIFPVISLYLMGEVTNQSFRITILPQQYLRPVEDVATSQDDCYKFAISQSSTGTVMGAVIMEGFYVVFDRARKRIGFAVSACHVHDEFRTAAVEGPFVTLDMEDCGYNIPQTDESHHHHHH
substance,measurement,value
HIV-1 protease,"cleavage of the F39-V40 bond (N-terminal sequence after incubation; pH 5.7, 0.5 M urea, 5% HIV protease, 1 hour at 37 C)",nearly 100% cleavage of the F^39-V^40 bond occurred
